Values quoted from earlier work, collected in US20260263563A1, “Method of Treatment of a Thoracolumbar Deformity in a Human Subject with Achondroplasia” (Ascendis Pharma Growth Disorders A/S, priority 2023, published 2026).
Positions of bridges follow the written chain, without caps; N, C: chain ends. No end group written: not given here.

Conditions: in vivo; cited from earlier work

Vosoritide (PGQEHPNARKYKGANKKGLSKGCFGLKLDRIGSMSGLGC; disulfide 23-39)
reported t½: about 28 minutes
